A short description of the data set: soluble on expression in E. coli; label from the status in PepcDB or PDB records.
Consider “MSLKIGFFIMNIGSAGGTERVSINVANALAKQGYDVSFISIGGNKPFFQVDEKINIYAMNKLPYSLKKDYFSITKKLRELVKELQLDTLIVVDGAIMLFSALALVNLNIKHILWEHYSFNFTGNRLVRTLGKYLAVTTCDKIVTLTEAEKTLWQEKFKTNNIISIANPNTLLPKNKLAKLENKTILSVGHLFSYKGFDYLLKVWQVLAKKYPDWNLKIVGSGEEEENLKNLAKALDIEDSVNFIPRTNDVSFYYESSSIYCLPSQTEGLPLVVIEAMAFGLPIVAFNCSPGVKQLVEHKENGFLCEQNNIEEMVKGLDLLINNPELYLQMSDKSRLMSEDYGIEKIIEEWKGILEGHHHHHH”, for which the “soluble on expression in E. coli” value is “soluble”.

SSSEGFICPQCMKSLGSADELFKHYEAVHDAGND: the “soluble on expression in E. coli” value is recorded as “soluble”.

Turning to “MGSDKIHHHHHHMTLKKLRANDRMKQIMAGYYMMGNQAEVKGWITSGAPVELLYAMDIYPVYPENHGALIGAAKQGPYFSDFAERKGFSRDLCSYARCDIGCVFAGTSPIGGLPEPTFLFACNNICNTVVKWYEVLSRIFKVPLFVLDTPFVRKELKESYVKYVHDQLYEFVDFLEKTTGRELSDSKLRDTVIKSIQGVKAYAEVLGMARHKPSPLTCFDAFINMAPIVCLRGTDYPVQFYAEMKEELEERVKRGEGAIENEEIRLLWDNIPVWYRLKWFSEFFAERNACLVADTYTNAWTGFISIDKSDIFWSMAETYTFIYLNIGLEHMAEAINRLIDYYDVDGAVIHSNRSCKPYSFGQYELQKMIEVPSVIIEADMVDSRTFSEAQVETRLEAFLEMLR”, the “soluble on expression in E. coli” value is on record as “not soluble”.

With “MPLRPQRPCRAQGCRSLHRNANGYCDGHADLAAEQAKAWATRKGSGRGGRPWRRKRERILKRDQYLCRCDDCAQLGRIREAHEVDHIVALAHGGTDDDDNLRAINRDCHKAKTQRESKTIKKLEHHHHHH”, the “soluble on expression in E. coli” value is “not soluble”.

Turning to “QGDIGIDNLRNFYTKKDFVDLKDVKDNDTPIANQLQFSNESYDLISESKDFNKFSNFKGKKLDVFGISYNGQSNTKYIYGGVTATNEYLDKSRNIPINIWINGNHKTISTNKVSTNKKFVTAQEIDVKLRKYLQEEYNIYGHNGTKKGEEYGHKSKFYSGFNIGKVTFHLNNNDTFSYDLFYTGDDGLPKSFLKIYEDNKTVESEKFHLDVDISYKA”, the “soluble on expression in E. coli” value was “soluble”.

Take “MPEQLNTRVEDCFQLAESFFKRPFKRPVVSLKLRGQKAGVAHLHENLLRFNPQLYRENTEDFLKQTVAHEVAHLIAHQLFGERIQPHGEEWQLIMRGVYELPPNRCHTYDVKRRSVTRYIYRCPCAESDFPFSAQRHKLVAQGRRYLCRRCRQTLVYSGETRVELEHHHHHH”: the “soluble on expression in E. coli” value is recorded as “not soluble”.

As to “MSLRVQANSRSMGVLEDKARARTFYKYLSKVYDRVNTFIWTEEMRAEALSMLDIDAEDRVLDVGCGTGFGTEGLLKHTEHVYGLDQSPHQLTKAWEKFGKHDPVAFHFGDAERLPFKPDSFDVVWSSGSIEYWPHPVQGLRELRRVAKPGSQVLVVGPDYPASTVFRKLADAIMLFYDEDEADRMFREAGYEEIQHRVLRKEPNSPPAIVTVARAPAADDEGHHHHHH”, the “soluble on expression in E. coli” value was “soluble”.

Regarding “MILVIDVGNTNTVFGVYDGKKLLNHWRMETSKGKTSDEYGMFIVSLLSYEKIDVGKIEAVVIASVVPPIMYSLEHAIRKYFKLEPMVVGPGIKTGINIKYENPREVGADRIINAVAALELYGGPLIIVDFGTATTFCAVSSKGEYLGGVICPGIKISAEALFQKTAKLPKIDLVKPETVIGRNTVSSMQSGIIYGYVGEVDYIVRRMKKEMKEDNIKVIATGGLARLIASESETIDEINGLLTLEGLRIIYERNK”, the “soluble on expression in E. coli” value is listed as “soluble”.

With “FHMNRVTGELGNRPLFSIADFTFYQGISCILGDNGVGKSTLFRSILQFQKYKGSITWKGSVLKKKKSLYRDLTGVVQEAEKQFIRVSLREELQLDGPDSERNQRIFQALRYFDLEQAVDKSPYQLSGGQQKILQLLTILTSKASVILLDEPFAGLDDRACHYFCKWIVEERNQGRSFLLISHRLDPLISVVDYWIEMTSQGLRHVKEVTITKPLTSQSSNTQGEVR”, the “soluble on expression in E. coli” value was “soluble”.

“MSLGTAVLDLMANGVDMLCWADPFFPDPVLPEHISQAVIKSMENGSASHYTMPIGNPELKEKIALKLQRYNNLTVEAQRNILITPGSDSGLLFAMMPFINNDDEVLIHSPSYPSNFLNVELLGGKPISVELKAENNFQIDIKDFENKITEKTKMVILTNPNNPTGTVLRRESLQAIADFIIAHDLILVVDQAFEDAIFDEIEFISIASLPGMWERTVSVFSFSKGMGLSGFRVGYLVADAQIVDVLFGCTVNVVGATNTSSQAGMIAALDEPSFMGEYTQIFERRRKVVFEMMNAIPGVCMVMPESGFLSWIDISKLGTSTFICDYLLQHAHVMVNSGVPYGQGGEGYIRLVHGCYKDDEKLYAVLTRIQQALMQLAKEGHHHHHH”: the “soluble on expression in E. coli” value is “not soluble”.

Regarding “MSLKLRARLPRGLADRGPAEIAATRAMVEKIREVYERYGFEPVETPAFEYTDALGKFLPDQDRPNEGVFSLQDDDEQWISLRYDLTAPLARYVAENFDQLPKPHRSYRFGWVFRNEKPGPGRFRQFMQFDADTVGAPTAAADAEMCMMAADTMEALGIPRGSYVVKVNNRKVLDGVLESIGLGGDENAGRRLTVLRAIDKSDKFAPEEIKKLLGPGRWDGGEEGKGDFTKGAMLSDDQSELILRATSPSFIAGRFNADGSGGISNIDTVELLRSTADNETLKQGCDELAVIADLLDACGYGATSANPDVRVVIDPSVVRGLEYYTGPVYEVELLLDTKDEKGRPVRFGSVGGGGRYDGLVSRFRGEPVPATGFSIGVSRLQAALTLIGQLGNKPQAGPVVVTVFGGEIAGYQKMVATLRKAGIRAELYLGNPKHSLGQQMKYADKRNSPCAIIQGSDEKQQGIVQIKDLILGAELASLEKDRDEYLKKQAEAQFSEGHHHHHH”, the “soluble on expression in E. coli” value was “not soluble”.

“MSLQYESHSQLIIKSSDGGSSFDPSSLLMAAGVSGASGGTESQLVEAYIQSADMIKYLDETIGLREHYMSDKADMFSGLSSSHKQEDFYKFYLDHIEVSVDSASSVISLRTRAFDAEYAKIINQAIVDKAEEFINNINNDLAKSKLTFAKGEHEIVEQKLQQAKTEILSFQSKYNVLDPSAEGAAFQQIAFSLQATLAQKKAELSTMSTMMSNVAPEVINIKREIAALQKEVEKQKERISTAEGESEALSVSELMAQYSNLQVQLQLAIQAYSSSLITLENARVEAYQKLQHLVTVESPTLPDDNAYPTEGHHHHHH”: the “soluble on expression in E. coli” value is given as “soluble”.

For “MGHHHHHHSHAESIKNQMTVKEWEKVFEMSQDKNLYHNLCTSLFPTIHGNDEVKRGVLLMLFGGVPKTTGEGTSLRGDINVCIVGDPSTAKSQFLKHVEEFSPRAVYTSGKASSAAGLTAAVVRDEESHEFVIEAGALMLADNGVCCIDEFDKMDVRDQVAIHEAMEQQTISITKAGVKATLNARTSILAAANPISGHYDRSKSLKQNINLSAPIMSRFDLFFILVDECNEVTDYAIARRIVDLHSRIEESIDRVYSLDDIRRYLLFARQFKPKISKESEDFIVEQYKHLRQRDGSGVTKSSWRITVRQLESMIRLSEAMARMHCCDEVQPKHVKEAFRLLNKSIIRVETPDVNLDQEEE”, the “soluble on expression in E. coli” value is on record as “not soluble”.

For “MGSDKIHHHHHHMISMKEEIKKVIEETGLPIITDEKSGAAQWVDLRELRLSYIISVENIKPFYEGLKEGKLLGTKCKKCGRLFFPPQKDCPSCFDSDIEWVELKNEGTLETMTVVFVRPPSFSAYDPYPVAIAKLDDGPRILAWYKGDPQQAKPGMRVKIQVGKRKEGYLMYEIAPA”, the “soluble on expression in E. coli” value was “not soluble”.

“MESKVVVPAQGKKITLQNGKLNVPENPIIPYIEGDGIGVDVTPAMLKVVDAAVEKAYKGERKISWMEIYTGEKSTQVYGQDVWLPAETLDLIREYRVAIKGPLTTPVGGGIRSLNVALRQELDLYICLRPVRYYQGTPSPVKHPELTDMVIFRENSEDIYAGIEWKADSADAEKVIKFLREEMGVKKIRFPEHCGIGIKPCSEEGTKRLVRAAIEYAIANDRDSVTLVHKGNIMKFTEGAFKDWGYQLAREEFGGELIDGGPWLKVKNPNTGKEIVIKDVIADAFLQQILLRPAEYDVIACMNLNGDYISDALAAQVGGIGIAPGANIGDECALFEATHGTAPAYAGQDKVNPGSIILSAEMMLRHMGWTEAADLIVKGMEGAINAKTVTYDFERLMDGAKLLKCSEFGDAIIENM”: the “soluble on expression in E. coli” value is “soluble”.

Take “MKEVIFTENAPKPIGPYSQAIKAGNFLFIAGQIPIDPKTGEIVKGDIKDQTRQVLENIKAILEAAGYSLNDVIKVTVYLKDMNDFAKMNEVYAEYFGESKPARVAVEVSRLPKDVLIEIEAIAYKE”: the “soluble on expression in E. coli” value is “soluble”.

The record behind these values is the DeepSol protein solubility set.
